From publication PMC10927774, “Mechanistic and biophysical characterization of polymyxin resistance response regulator PmrA in Acinetobacter baumannii” (Frontiers in Microbiology, 2024)

Target: the molecule itself
Test: SEC; full-length PmrA incubated with BeF3- and Mg2+ (5.3 mM BeSO4, 35 mM NaF, 7 mM MgCl2) to mimic phosphorylation; 25 mM Tris pH 8.0, 150 mM NaCl, 5% glycerol

B1: Acinetobacter baumannii PmrA full length (natural protein)
chain: MTKILMIEDDFMIAESTITLLQYHQFEVEWVNNGLDGLAQLAKTKFDLILLDLGLPMMDGMQVLKQIRQRAATPVLIISARDQLQNRVDGLNLGADDYLIKPYEFDELLARIHALLRRSGVEAQLASQDQLLESGDLVLNVEQHIATFKGQRIDLSNREWAILIPLMTHPNKIFSKANLEDKLYDFDSDVTSNTIEVYVHHLRAKLGKDFIRTIRGLGYRLGQS
notes: Response regulator PmrA of A. baumannii, UniProt E2FGC2; full length, printed as residues 1–244 in the methods, while the introduction places the DBD at 129–223; Cloned in pET28a; In one SEC run it was incubated with BeF3- and Mg2+ (aspartate phosphorylation mimic); this is treated as a condition of the assay, not as another molecule; also called PmrA FL; full-length PmrA; source: E. coli BL21 …
- stoichiometry N: 2
